No end group written: not given here.

What all share (assay): FP
In assay [1] the target is NCK2 full-length recombinant protein (mouse, WT, tag-free) (mouse, UniProt O55033 1-380).
Assay [2] addresses NCK2 2|3|1 full-length recombinant protein (SH3-shuffled, tag-free) (mouse, UniProt O55033 114-170; O55033 60-113; O55033 198-256; O55033 171-197; O55033 2-59; …).
The target of assay [3] is NCK2 3|1|2 full-length recombinant protein (SH3-shuffled, tag-free) (mouse, UniProt O55033 198-256; O55033 60-113; O55033 2-59; O55033 171-197; O55033 114-170; …).
NCK2 3|1|2 full-length recombinant protein (SH3-shuffled, tag-free), sequence (O55033 other isoform, or with tags, fused parts or gaps): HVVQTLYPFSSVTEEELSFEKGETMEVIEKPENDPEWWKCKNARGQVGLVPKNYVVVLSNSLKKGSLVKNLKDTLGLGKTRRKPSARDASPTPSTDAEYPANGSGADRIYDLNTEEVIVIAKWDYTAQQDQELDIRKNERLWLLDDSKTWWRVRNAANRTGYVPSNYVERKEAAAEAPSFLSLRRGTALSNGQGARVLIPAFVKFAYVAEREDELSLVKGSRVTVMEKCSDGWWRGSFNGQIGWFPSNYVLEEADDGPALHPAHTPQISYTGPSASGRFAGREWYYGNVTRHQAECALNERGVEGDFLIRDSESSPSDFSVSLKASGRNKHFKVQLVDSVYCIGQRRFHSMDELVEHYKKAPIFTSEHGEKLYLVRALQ
For assay [4], the target named is NCK2 1|3|2 full-length recombinant protein (SH3-shuffled, tag-free) (mouse, UniProt O55033 1-113; O55033 198-256; O55033 171-197; O55033 114-170; O55033 257-380).
NCK2 1|3|2 full-length recombinant protein (SH3-shuffled, tag-free), sequence (O55033 other isoform, or with tags, fused parts or gaps): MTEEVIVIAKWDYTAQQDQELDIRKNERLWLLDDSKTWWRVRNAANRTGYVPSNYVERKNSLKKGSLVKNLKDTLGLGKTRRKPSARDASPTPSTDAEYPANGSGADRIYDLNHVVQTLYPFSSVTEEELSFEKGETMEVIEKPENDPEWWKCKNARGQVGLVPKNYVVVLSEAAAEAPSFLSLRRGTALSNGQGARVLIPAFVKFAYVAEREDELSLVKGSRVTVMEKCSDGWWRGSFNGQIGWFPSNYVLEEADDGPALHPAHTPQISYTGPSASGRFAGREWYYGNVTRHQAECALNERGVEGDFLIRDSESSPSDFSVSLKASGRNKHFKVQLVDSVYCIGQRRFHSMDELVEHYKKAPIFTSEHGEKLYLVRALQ
For assay [5], the target named is NCK2 3|2|1 full-length recombinant protein (SH3-shuffled, tag-free) (mouse, UniProt O55033 198-256; O55033 60-197; O55033 2-59; O55033 257-380).
NCK2 3|2|1 full-length recombinant protein (SH3-shuffled, tag-free), sequence (O55033 other isoform, or with tags, fused parts or gaps): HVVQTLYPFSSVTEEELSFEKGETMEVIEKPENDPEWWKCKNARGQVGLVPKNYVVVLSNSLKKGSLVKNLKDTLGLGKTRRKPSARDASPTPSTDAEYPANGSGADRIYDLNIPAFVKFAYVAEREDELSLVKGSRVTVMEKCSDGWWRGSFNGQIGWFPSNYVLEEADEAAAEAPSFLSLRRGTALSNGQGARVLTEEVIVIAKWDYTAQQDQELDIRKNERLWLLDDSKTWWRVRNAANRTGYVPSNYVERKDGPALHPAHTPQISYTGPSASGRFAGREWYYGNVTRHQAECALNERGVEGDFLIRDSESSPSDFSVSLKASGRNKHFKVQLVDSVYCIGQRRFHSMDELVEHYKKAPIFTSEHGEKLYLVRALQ
Assay [6] addresses NCK2 2|1|3 full-length recombinant protein (SH3-shuffled, tag-free) (mouse, UniProt O55033 114-170; O55033 60-113; O55033 2-59; O55033 171-380).

NCK2 full-length recombinant protein (mouse, WT, tag-free), sequence (O55033 whole entry): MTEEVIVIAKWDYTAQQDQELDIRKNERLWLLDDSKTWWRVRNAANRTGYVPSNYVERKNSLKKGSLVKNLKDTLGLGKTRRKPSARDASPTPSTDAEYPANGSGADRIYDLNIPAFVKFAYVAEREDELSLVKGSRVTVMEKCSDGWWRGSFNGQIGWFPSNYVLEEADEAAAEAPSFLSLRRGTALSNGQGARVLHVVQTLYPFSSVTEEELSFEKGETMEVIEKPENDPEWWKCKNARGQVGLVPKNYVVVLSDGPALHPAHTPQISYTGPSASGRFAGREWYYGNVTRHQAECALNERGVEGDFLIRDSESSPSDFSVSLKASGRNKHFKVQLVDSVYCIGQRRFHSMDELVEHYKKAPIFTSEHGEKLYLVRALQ
NCK2 2|3|1 full-length recombinant protein (SH3-shuffled, tag-free), sequence (O55033 other isoform, or with tags, fused parts or gaps): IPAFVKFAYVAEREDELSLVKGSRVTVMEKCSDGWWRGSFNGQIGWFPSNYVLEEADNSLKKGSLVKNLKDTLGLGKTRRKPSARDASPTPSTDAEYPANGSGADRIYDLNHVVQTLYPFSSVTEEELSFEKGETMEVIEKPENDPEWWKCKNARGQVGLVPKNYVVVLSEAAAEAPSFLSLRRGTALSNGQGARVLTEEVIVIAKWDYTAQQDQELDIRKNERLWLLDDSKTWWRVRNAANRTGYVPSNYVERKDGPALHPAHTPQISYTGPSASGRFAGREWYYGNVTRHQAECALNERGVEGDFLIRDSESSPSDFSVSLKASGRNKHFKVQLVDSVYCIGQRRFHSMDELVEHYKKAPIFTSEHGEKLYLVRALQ
NCK2 2|1|3 full-length recombinant protein (SH3-shuffled, tag-free), sequence (O55033 other isoform, or with tags, fused parts or gaps): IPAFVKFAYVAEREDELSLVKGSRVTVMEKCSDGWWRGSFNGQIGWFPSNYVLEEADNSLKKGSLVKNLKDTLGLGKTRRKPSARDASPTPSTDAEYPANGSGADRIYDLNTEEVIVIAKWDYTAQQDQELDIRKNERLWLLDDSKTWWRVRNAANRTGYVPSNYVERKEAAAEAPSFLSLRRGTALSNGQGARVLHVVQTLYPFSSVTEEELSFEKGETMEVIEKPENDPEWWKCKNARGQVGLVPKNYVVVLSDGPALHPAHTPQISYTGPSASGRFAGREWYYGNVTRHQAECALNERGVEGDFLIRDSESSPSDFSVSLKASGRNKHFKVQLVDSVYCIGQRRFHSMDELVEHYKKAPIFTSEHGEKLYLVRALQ

B1: PAK1 peptide (DIQDKPPAPPMRNTST), fluorescein isothiocyanate-conjugated (peptide)
peptide: DIQDKPPAPPMRNTST
modifications: also: fluorescein isothiocyanate-conjugated (position not given here)
For the molecule B1, the equilibrium dissociation constant (Kd) in assay [1] was found to be 36 µM; in assay [2], 21.6 µM; in assay [3], 54.8 µM; in assay [4], 77.9 µM; in assay [5], 31.6 µM.

B2: Cd3ε peptide (RGQNKERPPPVPNPDY), fluorescein isothiocyanate-conjugated (peptide)
peptide: RGQNKERPPPVPNPDY
modifications: also: fluorescein isothiocyanate-conjugated (position not given here)
As for B2, the Kd in assay [1] turned out to be 12.7 µM; in assay [6] it was 18 µM; in assay [2], 26.3 µM; in assay [3] it was 16.2 µM; in assay [4] it was 13.5 µM.
